Assay results reported in patent publication US20140154241A1 (CYCLOGENIX, published 2014).

Target: T1, human serum albumin (HSA) (human, UniProt P02768 25-609)
T1 construct: Coated on ELISA plates or immunotubes; also called HuSA
Test: phage ELISA on coated HSA

T1 sequence (P02768 25-609 limits assumed): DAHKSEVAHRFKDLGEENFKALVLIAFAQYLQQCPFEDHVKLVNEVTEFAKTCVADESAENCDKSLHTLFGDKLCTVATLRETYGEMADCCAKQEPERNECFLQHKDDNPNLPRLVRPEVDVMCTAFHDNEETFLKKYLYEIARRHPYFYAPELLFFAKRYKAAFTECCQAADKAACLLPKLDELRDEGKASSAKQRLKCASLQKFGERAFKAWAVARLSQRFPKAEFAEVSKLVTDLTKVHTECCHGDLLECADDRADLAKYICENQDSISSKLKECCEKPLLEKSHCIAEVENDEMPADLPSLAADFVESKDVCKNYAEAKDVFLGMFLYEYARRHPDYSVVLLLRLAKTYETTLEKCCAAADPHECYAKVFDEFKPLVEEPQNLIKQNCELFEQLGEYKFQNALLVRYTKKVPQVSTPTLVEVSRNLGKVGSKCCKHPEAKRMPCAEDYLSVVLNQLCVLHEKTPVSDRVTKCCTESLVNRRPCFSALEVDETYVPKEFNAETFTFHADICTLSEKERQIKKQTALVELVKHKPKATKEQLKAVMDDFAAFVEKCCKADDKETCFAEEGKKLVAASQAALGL

binding result | Binder
binds | modified igNAR peptide clone B10 (VNAR) VNAR: RVDQTPRIATKETGESLTINCVLRDTACALDSTNWYRTKLGSTKEQTISIGGRYSETADEGSNPASLTIRDLRVEDSGTYKCKAAITPFDNWYECLGTRAEGAGTVLTVK
binds | representative full igNAR clone of SEQ ID NO: 8 (VNAR) VNAR: RVDQTPRIATKETGESLTINCVLRDTACALDSTNWYRTKLGSTKEQTISIGGRYSETVDEGSNSASLTIRDLRVEDSGTYKCKAAITPFDNWYECLGTRAEGAGTVLTVK
